Measurements from patent US20030049732.

Target: T1, Nod1
T1 chain: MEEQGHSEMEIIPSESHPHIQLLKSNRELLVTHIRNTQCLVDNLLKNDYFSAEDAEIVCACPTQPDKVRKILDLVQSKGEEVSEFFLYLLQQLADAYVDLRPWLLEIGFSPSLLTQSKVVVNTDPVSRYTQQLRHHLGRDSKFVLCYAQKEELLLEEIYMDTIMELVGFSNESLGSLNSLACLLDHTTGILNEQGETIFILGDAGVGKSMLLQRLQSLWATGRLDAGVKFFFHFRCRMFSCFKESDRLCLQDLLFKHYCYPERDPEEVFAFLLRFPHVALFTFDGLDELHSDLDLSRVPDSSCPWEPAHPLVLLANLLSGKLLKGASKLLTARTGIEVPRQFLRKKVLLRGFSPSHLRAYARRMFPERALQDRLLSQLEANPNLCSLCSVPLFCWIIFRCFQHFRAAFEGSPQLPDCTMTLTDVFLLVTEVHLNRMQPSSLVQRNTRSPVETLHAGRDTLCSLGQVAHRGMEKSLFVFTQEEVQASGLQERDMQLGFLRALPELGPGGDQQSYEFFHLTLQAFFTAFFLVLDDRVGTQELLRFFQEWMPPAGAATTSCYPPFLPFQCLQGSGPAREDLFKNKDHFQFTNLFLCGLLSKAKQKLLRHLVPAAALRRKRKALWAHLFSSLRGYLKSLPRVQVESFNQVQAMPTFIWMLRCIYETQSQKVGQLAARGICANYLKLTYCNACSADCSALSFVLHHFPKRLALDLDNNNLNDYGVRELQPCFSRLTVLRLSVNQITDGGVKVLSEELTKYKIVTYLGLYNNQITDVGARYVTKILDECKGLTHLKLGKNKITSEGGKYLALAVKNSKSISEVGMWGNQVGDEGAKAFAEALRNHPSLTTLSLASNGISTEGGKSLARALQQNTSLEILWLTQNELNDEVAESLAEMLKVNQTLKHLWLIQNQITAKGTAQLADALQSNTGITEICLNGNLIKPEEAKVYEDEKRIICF

B1: Caspase-9 (protein)
chain: MDEADRRLLRRCRLRLVEELQVDQLWDALLSRELFRPHMIEDIQRAGSGSRRDQARQLIIDLETRGSQALPLFISCLEDTGQDMLASFLRTNRQAAKLSKPTLENLTPVVLRPEIRKPEVLRPETPRPVDIGSGGFGDVGALESLRGNADLAYILSMEPCGHCLIINNVNFCRESGLRTRTGSNIDCEKLRRRFSSLHFMVEVKGDLTAKKMVLALLELAQQDHGALDCCVVVILSHGCQASHLQFPGAVYGTDGCPVSVEKIVNIFNGTSCPSLGGKPKLFFIQACGGEQKDHGFEVASTSPEDESPGSNPEPDATPFQEGLRTFDQLDAISSLPTPSDIFVSYSTFPGFVSWRDPKSGSWYVETLDDIFEQWAHSEDLQSLLLRVANAVSVKGIYKQMPGCFNFLRKKLFFKTS
proteolytic processing of procaspase-9 (SDS-PAGE, anti-Flag immunoblot of 293T lysates): Expression of Nod1 includes the proteolytic activation of procaspase-9, but not that of procaspase-8

B2: Caspase-8 (protein)
chain: MDFSRNLYDIGEQLDSEDLASLKFLSLDYIPQRKQEPIKDALMLFQRLQEKRMLEESNLSFLKELLFRINRLDLLITYLNTRKEEMERELQTPGRAQISAYRVMLYQISEEVSRSELRSFKFLLQEEISKCKLDDDMNLLDIFIEMEKRVILGEGKLDILKRVCAQINKSLLKIINDYEEFSKERSSSLEGSPDEFSNGEELCGVMTISDSPREQDSESQTLDKVYQMKSKPRGYCLIINNHNFAKAREKVPKLHSIRDRNGTHLDAGALTTTFEELHFEIKPHDDCTVEQIYEILKIYQLMDHSNMDCFICCILSHGDKGIIYGTDGQEAPIYELTSQFTGLKCPSLAGKPKVFFIQACQGDNYQKGIPVETDSEEQPYLEMDLSSPQTRYIPDEADFLLGMATVNNCVSYRNPAEGTWYIQSLCQSLRERCPRGDDILTILTEVNYEVSNKDDKKNMGKQMPQPTFTLRKKLVFPSD
proteolytic processing of procaspase-8 (SDS-PAGE, anti-HA immunoblot of 293T lysates): Expression of Nod1 includes the proteolytic activation of procaspase-9, but not that of procaspase-8
